In paper PMC6428923 (Biophysical Journal, 2019):
Where no end group is shown, it is not given here. The star is where a group is joined. Farnesyl = CC(C)=CCC/C(C)=C/CC/C(C)=C/C*

Legend:
[1] = target: calmodulin (CaM), full-length, amino acids 2-148 (human, UniProt P0DP23 2-148); assay: ITC
[2] = target: calmodulin (CaM), full-length, amino acids 2-148 (human, UniProt P0DP23 2-148); assay: ITC; remark: listed apart in the source

| Binder | Kd [1] [nM] | Kd [2] [nM] |
| --- | --- | --- |
| HKEKMSKDGKKKKKKSKTKC(Farnesyl)-OMe [HVR-FMe (hypervariable region of KRAS4b, farnesylated and carboxy-methylated)] | 300 | – |
| KSKTKC(Farnesyl)-OMe [KSKTKC-FMe] | – | 400 |
| KSKTKC(geranyl) (not fully specified (C-terminus); also: methylated (site not given here)) [KSKTKC-geranyl methylated (KSKTKC-GMe)] | – | 3000 |
| KSKTKC (not fully specified; cysteine with a five-carbon prenyl group, methylated (PMe)) [KSKTKC-prenyl methylated (KSKTKC-PMe)] | – | 30000 |
